Here are results for 120 sequences from the supplement of paper PMC10126150.

± gives the standard deviation of the averaged measurements.

The test system of the data set is ATP. Nature of the data set: switch fluorescence ratio, 500 uM ATP over buffer (Cy3 cluster intensity, sum of 5 cycles each) (fold (ratio)); higher = stronger signal-on switching upon ATP binding; sequences stand for … in TCGTCGGCAGCGTCAGATGTGTATAAGAGACAGTTTTTTTTTTTTTTTTTTTTTTTTT…TC. The conditions noted are these: aptamer strand: ATP DNA aptamer (quencher-CACCTGGGGGAGTATTGCGGAGGAAGG + anchor), 100 nM annealed; ATP concentration: 500 uM. An outline of the steps: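 Values give the fluorescence ratio for each switch-domain sequence, averaged from per-cluster ratios of summed target-cycle to summed buffer-cycle Cy3 intensity. The Cy3-labelled switching-strand clusters sat on a modified Illumina MiSeq flow-cell, were annealed to 100 nM quencher-labelled ATP aptamer, and were imaged in selection buffer, then after 15 min with 500 uM ATP at 22 °C. Five cycles ran with NaOH stripping and re-annealing between them, and clusters outside 100-1000 RFU were excluded.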
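Also: ATP exposure 15 min at 22 °C before imaging.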

Regarding TTAAAATGGG, the switch fluorescence ratio amounted to 1.01 ± 0.043. TTAAAATGTC: the switch fluorescence ratio is 0.992 ± 0.014. For the sequence TTAAACAAGG, the switch fluorescence ratio was 1.01 ± 0.012.

With TTAAAGAATT, the switch fluorescence ratio came to 1.003 ± 0.0084. Take TTAAAGACGG: the switch fluorescence ratio was determined as 1.06 ± 0.11. As for TTAAAGAGAA, the figure is 1 ± 0.013; as for TTAAAGATAT, 1.23 ± 0.32; as for TTAAAGCAGT, 1.56 ± 0.47. With TTAAAGCTTA, the switch fluorescence ratio amounted to 1.02 ± 0.04. As for TTAAAGGGCG, the switch fluorescence ratio stood at 0.976 ± 0.046. Consider TTAAAGTCGT, for which the switch fluorescence ratio stood at 1.01 ± 0.026. Turning to TTAAAGTGCC, the switch fluorescence ratio came to 1.01 ± 0.0072. Turning to TTAAATAGCG, the switch fluorescence ratio was 0.982 ± 0.036. For TTAAATTTCG, the switch fluorescence ratio is 1.003 ± 0.0035. As for TTAACACTCC, the figure is 1.2 ± 0.02; as for TTAACATGTG, 0.9593 ± 0.0034. On to TTAACATGTT, for which the switch fluorescence ratio is 0.996 ± 0.022. In the case of TTAACATTAC, the switch fluorescence ratio turned out to be 1.38 ± 0.11. As to TTAACCGGGA, the switch fluorescence ratio amounted to 1.02 ± 0.059. In the case of TTAACTGCTT, the switch fluorescence ratio worked out at 0.9894 ± 0.0088. For the sequence TTAAGAACGG, the switch fluorescence ratio came to 1.03 ± 0.075. Take TTAAGAAG: the switch fluorescence ratio was found to be 0.996 ± 0.015.

Regarding TTAAGAATTT, the switch fluorescence ratio worked out at 0.991 ± 0.031. Take TTAAGACTGT: the switch fluorescence ratio came out at 1.01 ± 0.037. TTAAGACTTG: the switch fluorescence ratio is 1 ± 0.012.

Take TTAAGATGGG: the switch fluorescence ratio is 0.996 ± 0.025. Regarding TTAAGCACTT, the switch fluorescence ratio was found to be 1.19 ± 0.062. With TTAAGCCAGG, the switch fluorescence ratio was determined as 1.16 ± 0.14. Consider TTAAGCCTGT, for which the switch fluorescence ratio was determined as 0.969 ± 0.021. TTAAGCGTAG: the switch fluorescence ratio came to 1.01 ± 0.013. Consider TTAAGCTAAT, for which the switch fluorescence ratio worked out at 1.42 ± 0.5. Turning to TTAAGCTCGC, the switch fluorescence ratio was found to be 0.986 ± 0.045. In the case of TTAAGCTCGG, the switch fluorescence ratio is 0.989 ± 0.037. Next, TTAAGCTGGT: 0.985 ± 0.022; TTAAGCTTGA: 1.015 ± 0.0062; TTAAGGAGTG: 0.95 ± 0.0099.

Turning to TTAAGGGAAC, the switch fluorescence ratio was 0.9966 ± 0.0052.

As to TTAAGGGAGG, the switch fluorescence ratio is 0.992 ± 0.03. With TTAAGGGCAG, the switch fluorescence ratio amounted to 1.01 ± 0.03. As for TTAAGGGCCA, the figure is 0.9709 ± 0.0035. Next, TTAAGGGGA: 1.06 ± 0.11; TTAAGGGGTT: 1.03 ± 0.044; TTAAGGGTTG: 1.02 ± 0.019. Take TTAAGTACGA: the switch fluorescence ratio was found to be 1.27 ± 0.041. In the case of TTAAGTGCCC, the switch fluorescence ratio is 1 ± 0.021.

TTAAGTTCTT: the switch fluorescence ratio came out at 0.996 ± 0.019.

For the sequence TTAAGTTGGT, the switch fluorescence ratio was 0.997 ± 0.045. With TTAATAAATC, the switch fluorescence ratio came out at 0.996 ± 0.021. For TTAATAAATG, the switch fluorescence ratio worked out at 1 ± 0.015. TTAATAGTTG: the switch fluorescence ratio amounted to 0.97177 ± 0.00065. As to TTAATATCCT, the switch fluorescence ratio is 1.06 ± 0.026. Regarding TTAATCAGGT, the switch fluorescence ratio is 1.01 ± 0.016. Next, TTAATCCAGT: 1.02 ± 0.035; TTAATCGATG: 1 ± 0.019; TTAATGCAGG: 1.006 ± 0.006. In the case of TTAATGCTTT, the switch fluorescence ratio worked out at 1.13 ± 0.23.

As to TTAATGGTAT, the switch fluorescence ratio is 1.02 ± 0.021. For the sequence TTAATGTTTG, the switch fluorescence ratio was determined as 0.997 ± 0.042. Next, TTAATTAACC: 1.13 ± 0.098; TTAATTAATA: 0.985 ± 0.013; TTAATTAATG: 1.05 ± 0.089. As to TTAATTACGG, the switch fluorescence ratio was 1.01 ± 0.017. Consider TTAATTAGGT, for which the switch fluorescence ratio was 1.02 ± 0.071. As for TTAATTCCAG, the switch fluorescence ratio was found to be 1.01 ± 0.029. TTAATTGTTT: the switch fluorescence ratio worked out at 0.989 ± 0.018. On to TTAATTTATG, for which the switch fluorescence ratio is 0.976 ± 0.035.

As for TTAATTTTCC, the switch fluorescence ratio was 1.46 ± 0.49. Regarding TTACAACGTA, the switch fluorescence ratio is 1 ± 0.013. In the case of TTACAAGGAC, the switch fluorescence ratio amounted to 1.049 ± 0.0089. Next, TTACACTTGT: 1 ± 0.032; TTACAGCCTG: 1 ± 0.04. Turning to TTACAGGGAG, the switch fluorescence ratio is 1.02 ± 0.01. Take TTACAGTCGT: the switch fluorescence ratio was 1.03 ± 0.022. As for TTACATGAAT, the switch fluorescence ratio came out at 1.04 ± 0.033. For TTACATGTCC, the switch fluorescence ratio is 1.039 ± 0.0089. Next, TTACATTTTA: 1.02 ± 0.015; TTACCACAGC: 1.05 ± 0.041; TTACCAGATT: 0.982 ± 0.033. Turning to TTACCATCCT, the switch fluorescence ratio is 1.19 ± 0.029. As for TTACCCAGAG, the figure is 1.1 ± 0.064; as for TTACCCTGGG, 1.07 ± 0.074.

On to TTACCGACGG, for which the switch fluorescence ratio amounted to 1.1 ± 0.069. Regarding TTACCTCCGT, the switch fluorescence ratio worked out at 2.19 ± 0.14.

On to TTACCTTTGT, for which the switch fluorescence ratio turned out to be 1.05 ± 0.024. TTACGAGGCG: the switch fluorescence ratio turned out to be 1.004 ± 0.0032. As for TTACGCGAAA, the figure is 2.57 ± 2.1; as for TTACGGAGGG, 1.02 ± 0.038. On to TTACGGCTGC, for which the switch fluorescence ratio was 1.03 ± 0.058. Next, TTACGGGCAC: 1.18 ± 0.012; TTACGGGGGT: 1.017 ± 0.01. Turning to TTACGGGGTT, the switch fluorescence ratio amounted to 0.988 ± 0.035. Turning to TTACGGTGAC, the switch fluorescence ratio is 1.17 ± 0.059. TTACGGTTTT: the switch fluorescence ratio came to 1.01 ± 0.023.

Take TTACGTGTGA: the switch fluorescence ratio came out at 1.05 ± 0.073. Consider TTACGTTCTT, for which the switch fluorescence ratio was 1.048 ± 0.0096.

Regarding TTACTACGTA, the switch fluorescence ratio amounted to 1.04 ± 0.059. For the sequence TTACTCGGGA, the switch fluorescence ratio came out at 1.04 ± 0.012. In the case of TTACTCGGGC, the switch fluorescence ratio came to 0.999 ± 0.019. Next, TTACTCTTCT: 0.972 ± 0.04; TTACTGAAAA: 1.04 ± 0.025; TTACTGAACT: 1.19 ± 0.025. Turning to TTACTGGGGA, the switch fluorescence ratio stood at 1.04 ± 0.011. In the case of TTACTTATCT, the switch fluorescence ratio was determined as 1.02 ± 0.033.

Turning to TTACTTCGTA, the switch fluorescence ratio came out at 1.06 ± 0.07.

Turning to TTACTTTGGG, the switch fluorescence ratio came out at 0.9892 ± 0.0065. Turning to TTACTTTTGT, the switch fluorescence ratio was determined as 1.021 ± 0.0039. Turning to TTAGAAAGTT, the switch fluorescence ratio amounted to 1.03 ± 0.091. Regarding TTAGAAATAT, the switch fluorescence ratio was 1.01 ± 0.016. TTAGAAATTT: the switch fluorescence ratio was 1.01 ± 0.02.

As for TTAGAATTAG, the switch fluorescence ratio was 1 ± 0.017.

TTAGACAAGG: the switch fluorescence ratio came out at 0.95377 ± 0.00078.

Consider TTAGACACAA, for which the switch fluorescence ratio stood at 1.01 ± 0.046.

For the sequence TTAGACTCTG, the switch fluorescence ratio is 1.05 ± 0.071. In the case of TTAGACTTTT, the switch fluorescence ratio was determined as 1.03 ± 0.012. Regarding TTAGAGAGCG, the switch fluorescence ratio was 1.018 ± 0.0096. As to TTAGAGTATA, the switch fluorescence ratio was found to be 1 ± 0.00038. With TTAGAGTGCA, the switch fluorescence ratio stood at 1.02 ± 0.019. For TTAGATATTT, the switch fluorescence ratio came out at 0.98 ± 0.024. As for TTAGATCGCC, the figure is 0.969 ± 0.027; as for TTAGATCGGG, 0.989 ± 0.011.
